The test has as its target Bni1FH1C (Bni1 residues 1227-1953) (S. cerevisiae, UniProt P41832 1227-1953). Nature of the test: fluorescence polarisation.

Sequence of Bni1FH1C (Bni1 residues 1227-1953) (P41832 1227-1953): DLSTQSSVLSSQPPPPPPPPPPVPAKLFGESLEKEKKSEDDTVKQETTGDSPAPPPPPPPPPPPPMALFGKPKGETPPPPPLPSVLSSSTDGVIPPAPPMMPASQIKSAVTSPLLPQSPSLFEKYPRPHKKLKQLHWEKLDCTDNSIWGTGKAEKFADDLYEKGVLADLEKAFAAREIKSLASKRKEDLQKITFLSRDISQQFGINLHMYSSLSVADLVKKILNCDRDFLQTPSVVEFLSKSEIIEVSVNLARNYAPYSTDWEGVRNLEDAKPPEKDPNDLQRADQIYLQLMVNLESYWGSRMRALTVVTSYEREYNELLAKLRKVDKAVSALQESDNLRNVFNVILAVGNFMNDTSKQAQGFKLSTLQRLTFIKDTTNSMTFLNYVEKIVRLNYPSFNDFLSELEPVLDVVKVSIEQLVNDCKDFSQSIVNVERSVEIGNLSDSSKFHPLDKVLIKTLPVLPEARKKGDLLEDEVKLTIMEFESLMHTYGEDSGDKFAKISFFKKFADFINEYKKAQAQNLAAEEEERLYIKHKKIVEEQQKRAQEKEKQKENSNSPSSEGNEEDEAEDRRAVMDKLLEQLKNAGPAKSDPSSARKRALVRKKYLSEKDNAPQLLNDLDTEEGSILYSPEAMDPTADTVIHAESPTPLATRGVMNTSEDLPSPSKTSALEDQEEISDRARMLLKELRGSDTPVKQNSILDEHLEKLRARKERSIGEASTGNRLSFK

B1: Bud6C (Bud6 residues 550-789) (domain or fragment, S. cerevisiae, UniProt P41697 550-788, looked up)
chain: AKNSSNRMYMEKSQTELGDLSDTLLSKVDDLQDVIEIMRKDVAERRSQPAKKKLETVSKDLENAQADVLKLQEFIDTEKPHWKKTWEAELDKVCEEQQFLTLQEELILDLKEDLGKALETFDLIKLCCEEQEKNPSRSKSNPILPIMRPGTFNQVREQVMVAVQSLNPDHDSRVEAIDKAEKMWEMERKLKASNEFDDELENFVGNSNLKKSGGFEEVERIRKQKDEANLRAYFGPGFT
As for B1, the binding result is given as “binds”.
